Results on 15 substances are retold here after publication PMC3317979.

Where only a bound is given, the exact number is not on record here.

The test system of data set [1] is 933W repressor (cI) (bacteriophage 933W (lambdoid prophage of E. coli O157:H7 EDL933)). As to the kind of experiment: EMSA. (In EMSA bound probe runs differently from free probe, usually more slowly.)
The test system of data set [2] is 933W repressor K46A (bacteriophage 933W (lambdoid prophage of E. coli O157:H7 EDL933)). Description: EMSA.
For data set [3], the system named is 933W repressor S41A (bacteriophage 933W (lambdoid prophage of E. coli O157:H7 EDL933)). Description: EMSA.
Data set [4] relates to 933W repressor (cI) (bacteriophage 933W (lambdoid prophage of E. coli O157:H7 EDL933)). Description: EMSA (direct and competition).
The test system is the same in data set [5]. Description: competition EMSA.
[6] abbreviates: scale: fold affinity vs S41A on consensus.

As to 933W OR1, in data set [1], the binding signal (fold higher affinity than consensus) stood at 10.

As for 933W consensus operator, the Kd in data set [2] came to 6.1 µM; in data set [4], 0.0048 µM. Besides, the binding signal in data set [3] (scale: fold lower affinity than wild-type repressor) is more than 10.

For the substance consensus 1A (symmetric C-G to A-T), the binding signal (fold change in affinity vs consensus) in data set [5] is less than 2.

For the substance consensus 2A (symmetric, G-C to A-T), the binding signal in data set [3] (setting [6]) stood at 1. The same substance displayed a binding signal (fold lower affinity than consensus) in data set [5] of more than 6.

As for consensus 2T (symmetric, G-C to T-A), the binding signal in data set [3] (setting [6]) is 1. In data set [5], this substance returned a binding signal (fold lower affinity than consensus) of more than 6.

In data set [5], consensus 3C (symmetric A-T to C-G) showed a binding signal (fold lower affinity than consensus) of more than 6.

Substance consensus 3G (symmetric A-T to G-C) came in with a binding signal (fold lower affinity than consensus) in data set [5] of 2.

As for consensus 3T (symmetric A-T to T-A), the binding signal (fold higher affinity than consensus) in data set [5] was more than 3.

In data set [1] (5-methylcytosine paired with G at position 4), consensus 4 G-5meC in one half-site had a binding signal (fold affinity vs consensus (identical)) of 1.

Consider consensus 4 G-C in one half-site, for which the binding signal (fold lower affinity than consensus) in data set [1] was more than 5.

consensus 5 C-C7G in one half-site came in with a binding signal (fold lower affinity than consensus) in data set [1] (7-deazaguanine replaces G at position 5) of more than 5.

In turn, consensus 6C (symmetric T-A to C-G) registered a binding signal (fold higher affinity than consensus) in data set [5] of more than 2.5.

Take consensus 7'A (C-G to A-T at 7' only): the binding signal (fold higher affinity than consensus) in data set [5] is more than 4.

consensus 8G (central A-T to G-C): the binding signal (fold lower affinity than consensus) in data set [5] was determined as 3.

Consider nonspecific DNA (NS), for which the Kd in data set [2] and in data set [5] was 6.1 µM in each case.

The term Kd denotes a measure of binding affinity in units of concentration.
